Assay [1] addresses T1, cynomolgus CTLA-4 on engineered 293F cells (W316-293F.cynoPro1.F1.Pool) (cynomolgus).
T1 construct: whole, on cells; also called cynomolgus CTLA-4 engineered cells
The experiment in a line: FACS binding to cynomolgus CTLA-4 engineered cells. As for the experimental part:
4-fold titrated Abs with 1% BSA DPBS from 40 μg/ml to 0.00004 μg/ml were added to the cells. Plates were incubated at 4° C. for 1 hour. After wash, […] 1:150 diluted PE-labeled goat anti-human antibody (Jackson 109-115-098) was added to each well and the plates were incubated at 4° C. for 1 hour. The binding of the antibodies onto the cells was tested by flow cytometry and the mean fluorescence intensity (MFI) was analyzed by FlowJo.
(Flow cytometry measures light scatter and fluorescence of single cells or particles in a stream.)

The target of assay [2] is T2, human CD3 on CD3+ Jurkat cells (human, UniProt P07766 23-207; P09693 23-182; P04234 22-171).
T2 construct: whole, on cells; also called CD3 positive Jurkat cells
In words: FACS on CD3+ Jurkat cells, supernatant, 5.0 nM. As for the experimental part:
(§1) To confirm whether the expressed proteins had correct folding and retained the original function, we tested their binding on CD3 positive Jurkat cells. FACS bindings of all the samples were carried out at three different concentrations: […].

Assay [3] deals with T2, human CD3 on CD3+ Jurkat cells. The experiment in a line: FACS on CD3+ Jurkat cells, supernatant, 0.4 nM. As for the experimental part: as §1
The target is the same in assay [4]. In words: FACS on CD3+ Jurkat cells, supernatant, 0.032 nM. As to the method: as §1

T2 sequence (P07766 23-207, chain 1 of 3): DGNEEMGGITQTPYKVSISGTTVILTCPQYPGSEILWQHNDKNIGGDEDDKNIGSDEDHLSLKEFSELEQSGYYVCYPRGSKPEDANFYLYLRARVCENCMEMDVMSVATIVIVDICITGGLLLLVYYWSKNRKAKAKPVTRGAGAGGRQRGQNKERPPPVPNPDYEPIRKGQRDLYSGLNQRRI
T2 sequence (P09693 23-182, chain 2 of 3): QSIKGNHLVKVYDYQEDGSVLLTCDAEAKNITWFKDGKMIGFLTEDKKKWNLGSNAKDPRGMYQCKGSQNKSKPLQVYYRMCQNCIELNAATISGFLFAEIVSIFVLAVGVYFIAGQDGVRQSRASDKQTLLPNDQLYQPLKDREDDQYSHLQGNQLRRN
T2 sequence (P04234 22-171, chain 3 of 3): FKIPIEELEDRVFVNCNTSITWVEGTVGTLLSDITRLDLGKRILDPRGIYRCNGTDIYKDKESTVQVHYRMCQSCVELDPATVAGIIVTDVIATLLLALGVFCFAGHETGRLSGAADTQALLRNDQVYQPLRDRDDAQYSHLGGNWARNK

B1: WBP316-BMK1.IgG4 (antibody, V domains shown)
VH: QVQLVESGGGVVQPGRSLRLSCAASGFTFSSYTMHWVRQAPGKGLEWVTFISYDGNNKYYADSVKGRFTISRDNSKNTLYLQMNSLRAEDTAIYYCARTGWLGPFDYWGQGTLVTVSS
VL: not shown
notes: also called WBP316-BMK1 (Ipilimumab)
The term EC50 denotes the concentration needed to bring the measured effect to its halfway point. Low values mean an effect from little substance, high ones a need for much substance. As to B1, in assay [1], the EC50 worked out at 0.674 nM and the “Top(MFI)” value stood at 8050 MFI.

B2: T3-Design_2 (IgG1), normal orientation (antibody)
heavy: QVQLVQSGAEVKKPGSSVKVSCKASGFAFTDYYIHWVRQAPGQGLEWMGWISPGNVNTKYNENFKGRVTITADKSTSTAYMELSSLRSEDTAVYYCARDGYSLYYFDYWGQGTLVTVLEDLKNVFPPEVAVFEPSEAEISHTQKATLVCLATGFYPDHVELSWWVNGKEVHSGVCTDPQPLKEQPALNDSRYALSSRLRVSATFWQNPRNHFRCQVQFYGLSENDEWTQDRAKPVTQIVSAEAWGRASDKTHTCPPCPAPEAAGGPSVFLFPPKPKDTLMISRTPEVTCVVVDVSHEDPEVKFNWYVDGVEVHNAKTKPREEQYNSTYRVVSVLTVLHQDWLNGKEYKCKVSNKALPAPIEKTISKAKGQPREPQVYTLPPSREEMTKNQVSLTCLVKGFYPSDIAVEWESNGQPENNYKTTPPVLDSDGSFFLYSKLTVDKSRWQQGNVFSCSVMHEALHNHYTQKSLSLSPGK
light: DIVMTQSPDSLAVSLGERATINCKSSQSLLNSRTRKNYLAWYQQKPGQPPKLLIYWASTRQSGVPDRFSGSGSGTDFTLTISSLQAEDVAVYYCTQSHTLRTFGGGTKVEIKPDIQNPDPAVYQLRDSKSSDKSVCLFTDFDSQTNVSQSKDSDVYITDKCVLDMRSMDFKSNSAVAWSNKSDFACANAFNNSIIPEDTFFPSPESS
notes: Monospecific IgG-like TCR chimera; tested as supernatant
For B2, the “MFI at 5.0 nM” value in assay [2] was 5830 MFI. Also, the “MFI at 0.4 nM” value in assay [3] worked out at 2620 MFI. The “MFI at 0.032 nM” value in assay [4] was 380 MFI.

B3: T3-Design_5 (IgG1), normal orientation (antibody)
heavy: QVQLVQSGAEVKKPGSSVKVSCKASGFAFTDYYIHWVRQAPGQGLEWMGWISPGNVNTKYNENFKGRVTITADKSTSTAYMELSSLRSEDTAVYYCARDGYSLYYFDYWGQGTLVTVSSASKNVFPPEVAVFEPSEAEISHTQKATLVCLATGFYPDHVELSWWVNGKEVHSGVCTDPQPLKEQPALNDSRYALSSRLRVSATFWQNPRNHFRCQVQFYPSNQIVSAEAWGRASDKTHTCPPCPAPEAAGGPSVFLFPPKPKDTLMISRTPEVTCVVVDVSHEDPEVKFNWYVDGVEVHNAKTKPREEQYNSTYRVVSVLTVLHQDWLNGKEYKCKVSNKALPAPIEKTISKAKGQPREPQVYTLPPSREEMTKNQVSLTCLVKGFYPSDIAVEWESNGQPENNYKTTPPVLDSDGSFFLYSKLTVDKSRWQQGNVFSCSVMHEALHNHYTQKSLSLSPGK
light: DIVMTQSPDSLAVSLGERATINCKSSQSLLNSRTRKNYLAWYQQKPGQPPKLLIYWASTRQSGVPDRFSGSGSGTDFTLTISSLQAEDVAVYYCTQSHTLRTFGGGTKVEIKRTVAAPDPAVYQLRDSKSSDKSVCLFTDFDSQTNVSQSKDSDVYITDKCVLDMRSMDFKSNSAVAWSNKSDFACANAFNNSIIPEDTFFPSPESS
notes: as for B2
Regarding B3, the “MFI at 5.0 nM” value in assay [2] came to 5390 MFI. The “MFI at 0.4 nM” value in assay [3] turned out to be 1860 MFI. For the same molecule, in assay [4], the “MFI at 0.032 nM” value amounted to 249 MFI.

B4: T3-Design_6a (IgG1), normal orientation (antibody)
heavy: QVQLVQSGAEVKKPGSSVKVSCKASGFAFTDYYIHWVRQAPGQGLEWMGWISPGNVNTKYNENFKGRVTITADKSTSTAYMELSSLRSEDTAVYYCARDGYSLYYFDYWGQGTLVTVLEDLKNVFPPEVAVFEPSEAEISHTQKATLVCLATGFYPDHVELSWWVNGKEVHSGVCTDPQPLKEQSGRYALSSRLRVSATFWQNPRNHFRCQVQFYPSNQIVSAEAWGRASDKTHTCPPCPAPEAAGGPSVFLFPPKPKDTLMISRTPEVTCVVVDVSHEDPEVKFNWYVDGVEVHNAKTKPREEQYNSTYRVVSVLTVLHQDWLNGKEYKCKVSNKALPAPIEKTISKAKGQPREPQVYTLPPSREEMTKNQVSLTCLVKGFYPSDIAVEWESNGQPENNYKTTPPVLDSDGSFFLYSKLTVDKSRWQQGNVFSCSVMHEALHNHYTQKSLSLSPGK
light: DIVMTQSPDSLAVSLGERATINCKSSQSLLNSRTRKNYLAWYQQKPGQPPKLLIYWASTRQSGVPDRFSGSGSGTDFTLTISSLQAEDVAVYYCTQSHTLRTFGGGTKVEIKPDIQNPDPAVYQLRDSKSSDKSVCLFTDFDSQTNVSQSKDSDVYITDKCVLDMRSMDFKSNSAVAWSNKSDFACANAFNNSIIPEDTFFPSPESS
notes: as for B2
As to B4, the “MFI at 5.0 nM” value in assay [2] is 5790 MFI. Besides, the “MFI at 0.4 nM” value in assay [3] turned out to be 2820 MFI. Moreover, in assay [4], the “MFI at 0.032 nM” value came out at 405 MFI.

B5: T3-Design_1 (IgG1), normal orientation (antibody)
heavy: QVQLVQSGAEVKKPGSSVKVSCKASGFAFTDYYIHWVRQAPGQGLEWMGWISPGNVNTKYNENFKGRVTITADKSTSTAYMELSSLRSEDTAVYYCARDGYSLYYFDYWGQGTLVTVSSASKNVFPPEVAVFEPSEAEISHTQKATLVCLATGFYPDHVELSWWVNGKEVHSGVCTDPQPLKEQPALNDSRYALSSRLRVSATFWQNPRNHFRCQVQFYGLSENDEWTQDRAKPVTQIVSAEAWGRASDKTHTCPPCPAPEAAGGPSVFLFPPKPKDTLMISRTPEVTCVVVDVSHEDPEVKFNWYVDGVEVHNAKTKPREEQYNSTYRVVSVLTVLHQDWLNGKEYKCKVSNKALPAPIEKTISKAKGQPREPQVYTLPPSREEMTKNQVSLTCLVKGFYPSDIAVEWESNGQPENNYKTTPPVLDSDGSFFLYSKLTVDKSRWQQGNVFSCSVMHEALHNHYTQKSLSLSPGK
light: DIVMTQSPDSLAVSLGERATINCKSSQSLLNSRTRKNYLAWYQQKPGQPPKLLIYWASTRQSGVPDRFSGSGSGTDFTLTISSLQAEDVAVYYCTQSHTLRTFGGGTKVEIKRTVAAPDPAVYQLRDSKSSDKSVCLFTDFDSQTNVSQSKDSDVYITDKCVLDMRSMDFKSNSAVAWSNKSDFACANAFNNSIIPEDTFFPSPESS
notes: Monospecific IgG-like chimera of T3 variable domains with TCR CBeta/CAlpha; tested as Expi293 supernatant
Consider B5, for which the “MFI at 5.0 nM” value in assay [2] was found to be 5440 MFI. For the same molecule, in assay [3], the “MFI at 0.4 nM” value turned out to be 2190 MFI. The “MFI at 0.032 nM” value in assay [4] stood at 292 MFI.

B6: T3-Design_6 (IgG1), normal orientation (antibody)
heavy: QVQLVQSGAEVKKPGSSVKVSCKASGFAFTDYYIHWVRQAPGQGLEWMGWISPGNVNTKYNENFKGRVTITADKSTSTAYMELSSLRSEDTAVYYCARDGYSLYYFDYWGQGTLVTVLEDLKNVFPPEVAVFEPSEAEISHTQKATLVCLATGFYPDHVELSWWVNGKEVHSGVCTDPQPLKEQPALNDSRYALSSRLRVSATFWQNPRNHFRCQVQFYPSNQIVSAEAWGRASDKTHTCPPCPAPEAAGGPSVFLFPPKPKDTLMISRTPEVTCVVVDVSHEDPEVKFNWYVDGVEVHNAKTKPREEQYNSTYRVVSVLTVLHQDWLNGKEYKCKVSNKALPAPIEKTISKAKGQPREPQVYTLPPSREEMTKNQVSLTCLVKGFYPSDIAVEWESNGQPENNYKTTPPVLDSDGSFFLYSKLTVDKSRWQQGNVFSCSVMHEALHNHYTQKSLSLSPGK
light: DIVMTQSPDSLAVSLGERATINCKSSQSLLNSRTRKNYLAWYQQKPGQPPKLLIYWASTRQSGVPDRFSGSGSGTDFTLTISSLQAEDVAVYYCTQSHTLRTFGGGTKVEIKPDIQNPDPAVYQLRDSKSSDKSVCLFTDFDSQTNVSQSKDSDVYITDKCVLDMRSMDFKSNSAVAWSNKSDFACANAFNNSIIPEDTFFPSPESS
notes: as for B2
For B6, in assay [2], the “MFI at 5.0 nM” value is 5790 MFI. Also, the “MFI at 0.4 nM” value in assay [3] stood at 3910 MFI. Moreover, in assay [4], the “MFI at 0.032 nM” value worked out at 613 MFI.

B7: T3-Design_3 (IgG1), crossed orientation (antibody)
heavy: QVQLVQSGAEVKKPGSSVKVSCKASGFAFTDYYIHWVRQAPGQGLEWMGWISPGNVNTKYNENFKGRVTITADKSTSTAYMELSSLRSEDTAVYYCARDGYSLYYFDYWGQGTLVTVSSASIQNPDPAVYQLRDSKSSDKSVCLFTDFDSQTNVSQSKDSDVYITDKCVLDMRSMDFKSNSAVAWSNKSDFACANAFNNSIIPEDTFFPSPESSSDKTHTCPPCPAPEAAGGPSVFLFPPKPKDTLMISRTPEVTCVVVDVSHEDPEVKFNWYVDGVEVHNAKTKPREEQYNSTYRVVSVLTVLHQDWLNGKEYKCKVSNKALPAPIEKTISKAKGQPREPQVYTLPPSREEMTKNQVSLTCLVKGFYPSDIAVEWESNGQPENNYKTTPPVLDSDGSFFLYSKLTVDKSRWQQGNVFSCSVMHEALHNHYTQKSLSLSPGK
light: DIVMTQSPDSLAVSLGERATINCKSSQSLLNSRTRKNYLAWYQQKPGQPPKLLIYWASTRQSGVPDRFSGSGSGTDFTLTISSLQAEDVAVYYCTQSHTLRTFGGGTKVEIKLEDLKNVFPPEVAVFEPSEAEISHTQKATLVCLATGFYPDHVELSWWVNGKEVHSGVCTDPQPLKEQPALNDSRYALSSRLRVSATFWQNPRNHFRCQVQFYGLSENDEWTQDRAKPVTQIVSAEAWGRA
notes: as for B2
Turning to B7, the “MFI at 5.0 nM” value in assay [2] was determined as 5090 MFI. Besides, the “MFI at 0.4 nM” value in assay [3] stood at 982 MFI. In assay [4], the “MFI at 0.032 nM” value came to 137 MFI.

B8: T3-Design_4 (IgG1), crossed orientation (antibody)
heavy: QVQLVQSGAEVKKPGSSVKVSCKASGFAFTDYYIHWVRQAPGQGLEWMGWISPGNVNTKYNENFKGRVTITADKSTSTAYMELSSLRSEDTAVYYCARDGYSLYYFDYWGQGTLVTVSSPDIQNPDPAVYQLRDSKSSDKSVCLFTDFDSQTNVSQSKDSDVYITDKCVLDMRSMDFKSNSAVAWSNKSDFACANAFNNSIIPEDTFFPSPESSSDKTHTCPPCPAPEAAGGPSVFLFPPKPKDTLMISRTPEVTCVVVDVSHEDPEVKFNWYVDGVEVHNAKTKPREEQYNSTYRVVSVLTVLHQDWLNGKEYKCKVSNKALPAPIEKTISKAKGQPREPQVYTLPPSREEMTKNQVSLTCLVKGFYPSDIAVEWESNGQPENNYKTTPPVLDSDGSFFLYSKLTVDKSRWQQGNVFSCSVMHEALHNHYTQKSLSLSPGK
light: DIVMTQSPDSLAVSLGERATINCKSSQSLLNSRTRKNYLAWYQQKPGQPPKLLIYWASTRQSGVPDRFSGSGSGTDFTLTISSLQAEDVAVYYCTQSHTLRTFGGGTKVEIKLEDLKNVFPPEVAVFEPSEAEISHTQKATLVCLATGFYPDHVELSWWVNGKEVHSGVCTDPQPLKEQPALNDSRYALSSRLRVSATFWQNPRNHFRCQVQFYGLSENDEWTQDRAKPVTQIVSAEAWGRA
notes: as for B2
Turning to B8, the “MFI at 5.0 nM” value in assay [2] worked out at 5440 MFI. Moreover, the “MFI at 0.4 nM” value in assay [3] was 1210 MFI. Further, the “MFI at 0.032 nM” value in assay [4] is 168 MFI.

B9: T3-Design_7 (IgG1), crossed orientation (antibody)
heavy: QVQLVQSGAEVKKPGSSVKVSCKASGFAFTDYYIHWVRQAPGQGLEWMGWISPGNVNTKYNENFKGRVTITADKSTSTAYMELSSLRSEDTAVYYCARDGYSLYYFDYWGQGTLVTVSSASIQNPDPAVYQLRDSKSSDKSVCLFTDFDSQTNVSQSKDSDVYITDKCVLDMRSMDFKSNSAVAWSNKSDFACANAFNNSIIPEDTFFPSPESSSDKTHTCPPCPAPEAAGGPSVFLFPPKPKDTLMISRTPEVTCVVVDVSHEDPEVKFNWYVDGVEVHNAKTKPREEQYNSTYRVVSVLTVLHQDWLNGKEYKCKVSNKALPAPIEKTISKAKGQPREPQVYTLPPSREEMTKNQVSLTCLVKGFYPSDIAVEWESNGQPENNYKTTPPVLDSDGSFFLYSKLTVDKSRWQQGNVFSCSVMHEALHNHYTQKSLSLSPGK
light: DIVMTQSPDSLAVSLGERATINCKSSQSLLNSRTRKNYLAWYQQKPGQPPKLLIYWASTRQSGVPDRFSGSGSGTDFTLTISSLQAEDVAVYYCTQSHTLRTFGGGTKVEIKLEDLKNVFPPEVAVFEPSEAEISHTQKATLVCLATGFYPDHVELSWWVNGKEVHSGVCTDPQPLKEQPALNDSRYALSSRLRVSATFWQNPRNHFRCQVQFYPSNQIVSAEAWGRA
notes: as for B2
For the molecule B9, the “MFI at 5.0 nM” value in assay [2] amounted to 6320 MFI. Further, the “MFI at 0.4 nM” value in assay [3] was determined as 1930 MFI. Also, the “MFI at 0.032 nM” value in assay [4] was found to be 259 MFI.

B10: T3-Design_8 (IgG1), crossed orientation (antibody)
heavy: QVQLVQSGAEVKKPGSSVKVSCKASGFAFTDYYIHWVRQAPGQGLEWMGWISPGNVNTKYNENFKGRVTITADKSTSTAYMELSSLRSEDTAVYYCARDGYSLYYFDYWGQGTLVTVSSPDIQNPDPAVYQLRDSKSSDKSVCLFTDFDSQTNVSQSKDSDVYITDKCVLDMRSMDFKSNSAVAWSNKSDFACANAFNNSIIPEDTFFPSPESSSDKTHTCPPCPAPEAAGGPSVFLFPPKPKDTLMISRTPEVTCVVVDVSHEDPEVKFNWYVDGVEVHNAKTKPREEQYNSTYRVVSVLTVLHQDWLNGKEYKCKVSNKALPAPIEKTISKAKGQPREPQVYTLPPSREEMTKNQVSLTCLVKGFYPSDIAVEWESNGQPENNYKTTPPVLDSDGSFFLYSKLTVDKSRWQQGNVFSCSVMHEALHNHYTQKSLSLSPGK
light: DIVMTQSPDSLAVSLGERATINCKSSQSLLNSRTRKNYLAWYQQKPGQPPKLLIYWASTRQSGVPDRFSGSGSGTDFTLTISSLQAEDVAVYYCTQSHTLRTFGGGTKVEIKLEDLKNVFPPEVAVFEPSEAEISHTQKATLVCLATGFYPDHVELSWWVNGKEVHSGVCTDPQPLKEQPALNDSRYALSSRLRVSATFWQNPRNHFRCQVQFYPSNQIVSAEAWGRA
notes: as for B2
As to B10, in assay [2], the “MFI at 5.0 nM” value came to 6410 MFI. Moreover, the “MFI at 0.4 nM” value in assay [3] worked out at 1830 MFI. Further, the “MFI at 0.032 nM” value in assay [4] turned out to be 243 MFI.
